# Source: patent publication US20210363269A1 (ALX ONCOLOGY, published 2021)
# T1: mouse 129 SIRP-α (mouse (129 strain), UniProt P97797 32-150)
# T1 construct: also called m129
# T1 chain: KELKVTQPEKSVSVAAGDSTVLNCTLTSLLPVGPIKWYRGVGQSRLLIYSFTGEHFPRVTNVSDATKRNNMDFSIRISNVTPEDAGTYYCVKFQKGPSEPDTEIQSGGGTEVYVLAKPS
# T2: cynomolgus SIRP-α (cynomolgus monkey, UniProt Q5TFQ8 30-148 (human entry), limits assumed)
# T2 construct: also called cyno1
# T2 chain: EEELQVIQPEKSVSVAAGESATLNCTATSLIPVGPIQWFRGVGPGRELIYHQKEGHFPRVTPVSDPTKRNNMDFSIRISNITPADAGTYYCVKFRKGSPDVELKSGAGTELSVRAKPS
# T3: BALBc mouse SIRP-α (mouse (BALB/c strain))
# T3 chain: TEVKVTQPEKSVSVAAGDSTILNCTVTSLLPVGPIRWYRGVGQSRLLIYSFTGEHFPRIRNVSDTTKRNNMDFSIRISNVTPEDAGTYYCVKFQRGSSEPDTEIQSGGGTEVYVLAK
# T4: BL6 mouse SIRP-α (mouse (C57BL/6 strain), UniProt P97797 32-148)
# T4 construct: also called C57BL/6
# T4 sequence: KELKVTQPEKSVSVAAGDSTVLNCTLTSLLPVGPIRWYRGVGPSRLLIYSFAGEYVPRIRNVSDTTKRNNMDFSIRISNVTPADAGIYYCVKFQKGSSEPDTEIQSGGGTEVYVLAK
# T5: NOD mouse SIRP-α (mouse (NOD strain))
# T5 chain: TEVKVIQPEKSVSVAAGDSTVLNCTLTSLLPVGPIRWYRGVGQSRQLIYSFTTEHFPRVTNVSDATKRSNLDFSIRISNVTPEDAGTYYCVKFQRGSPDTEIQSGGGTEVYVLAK
# T6: cynomolgus SIRP-α D1 domain (SEQ ID NO:11) (cynomolgus, UniProt Q5TFQ8 30-148 (human entry), limits assumed)
# T6 construct: also called cyno1
# T6 chain: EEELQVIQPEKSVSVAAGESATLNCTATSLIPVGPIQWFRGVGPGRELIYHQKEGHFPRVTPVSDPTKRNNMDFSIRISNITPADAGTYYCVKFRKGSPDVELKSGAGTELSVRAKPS
# How the values were obtained:
# [1] = target: T7, human SIRP-α v1 (human, UniProt P78324 31-149); experiment: SPR
# T7 construct: also called Human v1; Human V1
# T7 sequence (P78324 31-149 limits assumed): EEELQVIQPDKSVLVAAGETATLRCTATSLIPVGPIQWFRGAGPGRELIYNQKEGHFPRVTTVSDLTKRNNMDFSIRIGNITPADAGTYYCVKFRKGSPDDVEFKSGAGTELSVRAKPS
# In short: (§1)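 SIRP analytes at nominal, A280-based concentrations were injected in one-shot kinetic mode over purified antibodies that were amine-coupled to a GLC chip or captured by biotinylated Protein A on an NLC chip of a ProteOn XPR36. All runs were at 25° C in PBS pH 7.4 with 0.01% Tween-20. Apparent ka and kd came from a global simple Langmuir fit of double-referenced data, with KD as their ratio kd/ka.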
# [2] = target: T8, human SIRP-α v2 (human); experiment: SPR
# T8 construct: also called Human v2; Human V2
# T8 sequence (chain, as listed by the source limits assumed): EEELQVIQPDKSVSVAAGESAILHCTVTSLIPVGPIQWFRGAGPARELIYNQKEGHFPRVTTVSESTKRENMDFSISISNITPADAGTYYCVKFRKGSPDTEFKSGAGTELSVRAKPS
# In short: as §1
# [3] = target: T1, mouse 129 SIRP-α; experiment: SPR Koff +/-
# In short: as §1
# [4] = target: T2, cynomolgus SIRP-α; experiment: SPR, antibody on GLC chip
# In short: (§2)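 On a ProteOn XPR36 biosensor, Protein A-purified antibodies were amine-coupled to a GLC chip at about ~1000 RU after dilution to 80 nM in 10 mM sodium acetate pH 4.5. SIRP analytes at 100, 33, 11, 3.7, 1.2 and 0 nM were then injected one-shot in PBS pH 7.4 containing 0.01% Tween-20 at 25° C, with 90 s of association at 100 μL/min and 1200 s of dissociation. The dissociation constant (KD) was calculated as kd/ka from a global Langmuir fit of double-referenced data.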
# [5] = target: T9, human SIRPγ isoform 1 (human, UniProt Q9P1W8 29-147); experiment: SPR, antibody on GLC chip
# T9 construct: also called Gamma; Human SIRPg
# T9 sequence (Q9P1W8 29-147 limits assumed): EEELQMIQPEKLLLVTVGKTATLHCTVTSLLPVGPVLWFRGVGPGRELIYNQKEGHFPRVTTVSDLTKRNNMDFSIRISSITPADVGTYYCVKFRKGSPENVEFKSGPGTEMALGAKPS
# In short: as §2
# [6] = target: T7, human SIRP-α v1; experiment: SPR, antibody on GLC chip
# In short: as §2
# [7] = target: T8, human SIRP-α v2; experiment: SPR, antibody on GLC chip
# In short: as §2
# [8] = target: T10, human SIRPβ isoform 1 (human, UniProt O00241 30-148); experiment: SPR, antibody on GLC chip
# T10 construct: also called Beta; Human SIRPb
# T10 sequence (O00241 30-148 limits assumed): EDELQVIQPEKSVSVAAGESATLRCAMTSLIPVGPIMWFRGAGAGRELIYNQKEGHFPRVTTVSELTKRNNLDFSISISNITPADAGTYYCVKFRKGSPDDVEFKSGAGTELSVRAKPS
# In short: as §2
# [9] = target: T3, BALBc mouse SIRP-α; experiment: SPR, antibody on GLC chip
# In short: as §2
# [10] = target: T4, BL6 mouse SIRP-α; experiment: SPR, antibody on GLC chip
# In short: as §2
# [11] = target: T5, NOD mouse SIRP-α; experiment: SPR, antibody on GLC chip
# In short: as §2
# [12] = target: T11, human SIRP-α v2 D1 domain (human); experiment: SPR, antibody immobilised on GLC chip
# T11 construct: also called human v2; human α v2
# T11 sequence (chain, as listed by the source limits assumed): as the sequence (chain, as listed by the source limits assumed) above
# Experimental: (§3) All experiments were performed at 25° C. using a SPR-based ProteOn XPR36 biosensor (BioRad, Inc, Hercules, Calif.) equipped with GLC or NLC sensor chips. […] Purification was carried out by standard Protein A affinity column chromatography and eluted antibodies were stored in PBS buffer.
# (§4) For the method using GLC chip, the analytes were injected and flowed over anti-SIRPα antibodies immobilized (˜1000 RUs) on GLC chips using Proteon™ Amine Coupling Kit. For the immobilization step, GLC chip was activated with EDAC/Sulpho-NHS 1:1 (Biorad) diluted 1/100 for 300 s at 25 μL/min. Anti-SIRPα antibodies were diluted to 80 nM concentration in 10 mM sodium acetate buffer pH 4.5 and immobilized to the chip at 30 μL/min for 50 s. Chip was inactivated with ethanolamine for 300 s at 25 μL/min. The analytes (e.g., SIRP-α from different species, SIRP-β, SIRP-γ) were injected in a “one-shot” kinetic mode at nominal concentrations of 100, 33, 11, 3.7, 1.2 and 0 nM. Association times were monitored for 90 s at 100 μL/min, and dissociation times were monitored for 1200 s. The surfaces were regenerated with a 2:1 v/v blend of Pierce IgG elution buffer/4M NaCl.
# [13] = target: T12, human SIRP-α v1 D1 domain (human, UniProt P78324 31-149); experiment: SPR, antibody immobilised on GLC chip
# T12 construct: also called human v1; human α v1
# T12 sequence (P78324 31-149 limits assumed): as the sequence (P78324 31-149 limits assumed) above
# Experimental: as §3, §4
# [14] = target: T6, cynomolgus SIRP-α D1 domain (SEQ ID …); experiment: SPR, antibody immobilised on GLC chip
# Experimental: as §3, §4
Binder,Kd [1] [pM],Kd [2] [pM],binding result [3],Kd [4] [pM],Kd [5] [pM],Kd [6] [pM],Kd [7] [pM],Kd [8] [pM],binding result [9],binding result [10],binding result [11],Kd [12] [pM],Kd [13] [pM],Kd [14] [pM],Kd [9] [pM],Kd [10] [pM],Kd [11] [pM]
"antibody 119 (antibody, V domains shown, also called AB119; S119) VH: DVQLLESGGGVVQPGGSLRLSCAASGFSFSNFAMTWVRQAPGEGLEWVSTIGSGDTYYADSVKGRFTISRDNSKNTLYLQMNSLRAEDTAVYYCAKDSTVSWSGDFFDYWGLGTLVTVSS VL: EIVLTQSPATLSVSPGERATFSCRASQNVKNDLAWYQQRPGQAPRLLIYAARIRETGIPERFSGSGSGTEFTLTITSLQSEDFAVYYCQQYYDWPPFTFGGGTKVEIK",183,79.9,no binding,112,267,183,68.2,342,no binding,no binding,,,,,,,
"antibody 119 variant, light chain Mut / heavy chain Mut_V34M (antibody, V domains shown) VH: EVQLLESGGGVVQPGGSLRLSCAASGFSFSNFAMTWVRQAPGKGLEWVSTIGSGDTYYADSVKGRFTISRDNSKNTLYLQMNSLRAEDTAVYYCAKDSTVSWSGDFFDYWGQGTLVTVSS VL: EIVLTQSPATLSVSPGERATLSCRASQNVKNDLAWYQQKPGQAPRLLIYAARIRETGIPARFSGSGSGTEFTLTISSLQSEDFAVYYCQQYYDWPPFTFGGGTKVEIK",,,,118,263,215,68.8,337,no binding,no binding,no binding,,,,,,
"antibody 119 variant Mut/mut_V34M (antibody, human IgG1, V domains shown, Human IgG1 with L234A/L235A/G237A/N297A; Labels are in the order VL/VH) VH: EVQLLESGGGVVQPGGSLRLSCAASGFSFSNFAMTWVRQAPGKGLEWVSTIGSGDTYYADSVKGRFTISRDNSKNTLYLQMNSLRAEDTAVYYCAKDSTVSWSGDFFDYWGQGTLVTVSS VL: EIVLTQSPATLSVSPGERATLSCRASQNVKNDLAWYQQKPGQAPRLLIYAARIRETGIPARFSGSGSGTEFTLTISSLQSEDFAVYYCQQYYDWPPFTFGGGTKVEIK",,,,,,,,,,,,68.8,215,118,,,
"antibody 119 variant wt/mut (VL wt / VH mut) (antibody, human IgG1, V domains shown, Human IgG1 with L234A/L235A/G237A/N297A; Labels are in the order VL/VH) VH: EVQLLESGGGVVQPGGSLRLSCAASGFSFSNFAVTWVRQAPGKGLEWVSTIGSGDTYYADSVKGRFTISRDNSKNTLYLQMNSLRAEDTAVYYCAKDSTVSWSGDFFDYWGQGTLVTVSS VL: EIVLTQSPATLSVSPGERATFSCRASQNVKNDLAWYQQRPGQAPRLLIYAARIRETGIPERFSGSGSGTEFTLTITSLQSEDFAVYYCQQYYDWPPFTFGGGTKVEIK",,,,,,,,,,,,69.4,254,155,,,
"antibody 136 variant, light chain wt / heavy chain Mut (antibody, V domains shown) VH: EVQLVESGGGVVQPGRSLRLSCAASGFTFSSYDVNWVRQAPGKGLEWVSLISGSGEIIYYADSVKGRFTISRDNSKNTLYLQMNSLRAEDTAVYYCAKENNRYRFFDDWGQGTLVTVSS VL: ETVLTQSPGTLTLSPGERATLTCRASQSVYTYLAWYQEKPGQAPRLLIYGASSRATGIPDRFSGSGSGTEFTLTISSLQSEDFAVYYCQQYYDRPPLTFGGGTKVEIK",,,,,16500,558,1740,3540,,,,,,,416,23100,678
"antibody 136 variant, light chain Mut_I2T / heavy chain Mut (antibody, V domains shown) VH: EVQLVESGGGVVQPGRSLRLSCAASGFTFSSYDVNWVRQAPGKGLEWVSLISGSGEIIYYADSVKGRFTISRDNSKNTLYLQMNSLRAEDTAVYYCAKENNRYRFFDDWGQGTLVTVSS VL: ETVLTQSPGTLSLSPGERATLSCRASQSVYTYLAWYQQKPGQAPRLLIYGASSRATGIPDRFSGSGSGTEFTLTISSLQSEDFAVYYCQQYYDRPPLTFGGGTKVEIK",,,,,40000,717,1860,3160,,,,,,,422,15300,680
